From patent publication US20260242735A1 (UNIVERSIT T BASEL, published 2026)

Assays:
Assay in all cases: flow cytometry, HEK293-T, alanine scan;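 note: transiently transfected HEK293-T cells expressing single alanine mutants of human CD33 (alanine residues changed to serine), antibody binding fluorescence minus background, relative to wild type CD33, mean of duplicates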
human CD33 L277A = human CD33 L277A (human, UniProt P20138 18-364)
Method: (§1) An alanine scan on human CD33 was performed to the determine the residues on CD33 that are involved in binding to the antibodies investigated. […] Briefly, a mutation library of CD33 was created by high-throughput, site-directed mutagenesis. Each residue was individually mutated to alanine, with alanine codons mutated to serine. The mutant library was arrayed in 384-well microplates and transiently transfected into HEK293-T. Following transfection, cells were incubated with the indicated antibodies (IgG or Fab) at concentrations pre-determined using an independent immunofluorescence titration curve on wild type CD33. […] Binding of each antibody to each mutant clone was determined in duplicates. For each point, background fluorescence was subtracted from the raw data, which were then normalized to antibody reactivity with wild type CD33.
(§2) Critical residues for antibody binding (outlined in dark grey) were residues whose mutations led to a binding of the test Abs of less than 20%. Additional secondary residues (outlined in light grey) were identified that led to a binding of the test Abs of between 20 and 40% as compared to the wild type CD33.

human CD33 I278A = human CD33 I278A (human, UniProt P20138 18-364)
Method: as §1, §2

human CD33 F279A = human CD33 F279A (human, UniProt P20138 18-364)
Method: as §1, §2

human CD33 F280A = human CD33 F280A (human, UniProt P20138 18-364)
Method: as §1, §2

human CD33 H285A = human CD33 H285A (human, UniProt P20138 18-364)
Method: as §1, §2

human CD33 R286A = human CD33 R286A (human, UniProt P20138 18-364)
Method: as §1, §2

human CD33 R287A = human CD33 R287A (human, UniProt P20138 18-364)
Method: as §1, §2

human CD33 A289S = human CD33 A289S (human, UniProt P20138 18-364)
Method: as §1, §2

human CD33 A290S = human CD33 A290S (human, UniProt P20138 18-364)
Method: as §1, §2

human CD33 R291A = human CD33 R291A (human, UniProt P20138 18-364)
Method: as §1, §2

human CD33 A293S = human CD33 A293S (human, UniProt P20138 18-364)
Method: as §1, §2

human CD33 V294A = human CD33 V294A (human, UniProt P20138 18-364)
Method: as §1, §2

human CD33 G295A = human CD33 G295A (human, UniProt P20138 18-364)
Method: as §1, §2

human CD33 N297A = human CD33 N297A (human, UniProt P20138 18-364)
Method: as §1, §2

human CD33 D298A = human CD33 D298A (human, UniProt P20138 18-364)
Method: as §1, §2

human CD33 H300A = human CD33 H300A (human, UniProt P20138 18-364)
Method: as §1, §2

human CD33 T302A = human CD33 T302A (human, UniProt P20138 18-364)
Method: as §1, §2

human CD33 S305A = human CD33 S305A (human, UniProt P20138 18-364)
Method: as §1, §2

human CD33 A306S = human CD33 A306S (human, UniProt P20138 18-364)
Method: as §1, §2

human CD33 L316A = human CD33 L316A (human, UniProt P20138 18-364)
Method: as §1, §2

human CD33 P319A = human CD33 P319A (human, UniProt P20138 18-364)
Method: as §1, §2

human CD33 T320A = human CD33 T320A (human, UniProt P20138 18-364)
Method: as §1, §2

human CD33 S324A = human CD33 S324A (human, UniProt P20138 18-364)
Method: as §1, §2

human CD33 S326A = human CD33 S326A (human, UniProt P20138 18-364)
Method: as §1, §2

human CD33 A328S = human CD33 A328S (human, UniProt P20138 18-364)
Method: as §1, §2

human CD33 A329S = human CD33 A329S (human, UniProt P20138 18-364)
Method: as §1, §2

human CD33 P330A = human CD33 P330A (human, UniProt P20138 18-364)
Method: as §1, §2

human CD33 M334A = human CD33 M334A (human, UniProt P20138 18-364)
Method: as §1, §2

human CD33 A272S = human CD33 A272S (human, UniProt P20138 18-364)
Method: as §1, §2

human CD33 E336A = human CD33 E336A (human, UniProt P20138 18-364)
Method: as §1, §2

human CD33 E337A = human CD33 E337A (human, UniProt P20138 18-364)
Method: as §1, §2

human CD33 L338A = human CD33 L338A (human, UniProt P20138 18-364)
Method: as §1, §2

human CD33 H339A = human CD33 H339A (human, UniProt P20138 18-364)
Method: as §1, §2

human CD33 S342A = human CD33 S342A (human, UniProt P20138 18-364)
Method: as §1, §2

human CD33 N344A = human CD33 N344A (human, UniProt P20138 18-364)
Method: as §1, §2

human CD33 L273A = human CD33 L273A (human, UniProt P20138 18-364)
Method: as §1, §2

human CD33 R286A, sequence (P20138 18-364 R286A limits assumed): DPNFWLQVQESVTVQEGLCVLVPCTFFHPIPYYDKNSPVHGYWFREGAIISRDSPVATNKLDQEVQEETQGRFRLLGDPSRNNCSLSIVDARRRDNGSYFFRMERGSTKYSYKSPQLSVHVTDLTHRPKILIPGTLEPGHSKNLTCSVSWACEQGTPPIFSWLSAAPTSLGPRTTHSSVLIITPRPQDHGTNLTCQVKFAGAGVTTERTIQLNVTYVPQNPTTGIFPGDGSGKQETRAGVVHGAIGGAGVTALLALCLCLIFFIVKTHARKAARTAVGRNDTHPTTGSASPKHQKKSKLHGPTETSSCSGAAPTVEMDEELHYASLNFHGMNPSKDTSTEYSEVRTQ
human CD33 A328S, sequence (P20138 18-364 A328S limits assumed): as the sequence (P20138 18-364 R286A limits assumed) above, with A269R, A311S counted along it
human CD33 P319A, sequence (P20138 18-364 P319A limits assumed): as the sequence (P20138 18-364 R286A limits assumed) above, with A269R, P302A counted along it
human CD33 I278A, sequence (P20138 18-364 I278A limits assumed): as the sequence (P20138 18-364 R286A limits assumed) above, with I261A, A269R counted along it
human CD33 A306S, sequence (P20138 18-364 A306S limits assumed): as the sequence (P20138 18-364 R286A limits assumed) above, with A269R, A289S counted along it
human CD33 F280A, sequence (P20138 18-364 F280A limits assumed): as the sequence (P20138 18-364 R286A limits assumed) above, with F263A, A269R counted along it
human CD33 E337A, sequence (P20138 18-364 E337A limits assumed): as the sequence (P20138 18-364 R286A limits assumed) above, with A269R, E320A counted along it
human CD33 S324A, sequence (P20138 18-364 S324A limits assumed): as the sequence (P20138 18-364 R286A limits assumed) above, with A269R, S307A counted along it
human CD33 L316A, sequence (P20138 18-364 L316A limits assumed): as the sequence (P20138 18-364 R286A limits assumed) above, with A269R, L299A counted along it
human CD33 R287A, sequence (P20138 18-364 R287A limits assumed): as the sequence (P20138 18-364 R286A limits assumed) above, with A269R, R270A counted along it
human CD33 A329S, sequence (P20138 18-364 A329S limits assumed): as the sequence (P20138 18-364 R286A limits assumed) above, with A269R, A312S counted along it
human CD33 L338A, sequence (P20138 18-364 L338A limits assumed): as the sequence (P20138 18-364 R286A limits assumed) above, with A269R, L321A counted along it
human CD33 A290S, sequence (P20138 18-364 A290S limits assumed): as the sequence (P20138 18-364 R286A limits assumed) above, with A269R, A273S counted along it
human CD33 A272S, sequence (P20138 18-364 A272S limits assumed): as the sequence (P20138 18-364 R286A limits assumed) above, with A255S, A269R counted along it

| Binder | Mean % WT Binding (human CD33 L277A) | Mean % WT Binding (human CD33 I278A) | Mean % WT Binding (human CD33 F279A) | Mean % WT Binding (human CD33 F280A) | Mean % WT Binding (human CD33 H285A) | Mean % WT Binding (human CD33 R286A) | Mean % WT Binding (human CD33 R287A) | Mean % WT Binding (human CD33 A289S) | Mean % WT Binding (human CD33 A290S) | Mean % WT Binding (human CD33 R291A) | Mean % WT Binding (human CD33 A293S) | Mean % WT Binding (human CD33 V294A) | Mean % WT Binding (human CD33 G295A) | Mean % WT Binding (human CD33 N297A) | Mean % WT Binding (human CD33 D298A) | Mean % WT Binding (human CD33 H300A) | Mean % WT Binding (human CD33 T302A) | Mean % WT Binding (human CD33 S305A) | Mean % WT Binding (human CD33 A306S) | Mean % WT Binding (human CD33 L316A) | other results |
| --- | --- | --- | --- | --- | --- | --- | --- | --- | --- | --- | --- | --- | --- | --- | --- | --- | --- | --- | --- | --- | --- |
| Refmab #6 (antibody, V domains shown, The alanine scan used IgG or Fab) VH: QVQLQQPGAEVVKPGASVKMSCKASGYTFTSYYIHWIKQTPGQGLEWVGVIYPGNDDISYNQKFQGKATLTADKSSTTAYMQLSSLTSEDSAVYYCAREVRLRYFDVWGQGTTVTVSS VL: EIVLTQSPGSLAVSPGERVTMSCKSSQSVFFSSSQKNYLAWYQQIPGQSPRLLIYWASTRESGVPDRFTGSGSGTDFTLTISSVQPEDLAIYYCHQYLSSRTFGQGTKLEIK | 104 % WT binding | 108 % WT binding | 102 % WT binding | 106 % WT binding | 103 % WT binding | 95.6 % WT binding | 71.5 % WT binding | 96 % WT binding | 108 % WT binding | 104 % WT binding | 101 % WT binding | 104 % WT binding | 92.1 % WT binding | 95.6 % WT binding | 106 % WT binding | 101 % WT binding | 101 % WT binding | 86.8 % WT binding | 99.2 % WT binding | 90.5 % WT binding | Mean % WT Binding (human CD33 P319A): 85.2 % WT binding; Mean % WT Binding (human CD33 T320A): 100 % WT binding; Mean % WT Binding (human CD33 S324A): 97.1 % WT binding; Mean % WT Binding (human CD33 S326A): 88.8 % WT binding; Mean % WT Binding (human CD33 A328S): 94 % WT binding; Mean % WT Binding (human CD33 A329S): 92.8 % WT binding; Mean % WT Binding (human CD33 P330A): 97.9 % WT binding; Mean % WT Binding (human CD33 M334A): 107 % WT binding; Mean % WT Binding (human CD33 A272S): 90.9 % WT binding; Mean % WT Binding (human CD33 E336A): 102 % WT binding; Mean % WT Binding (human CD33 E337A): 105 % WT binding; Mean % WT Binding (human CD33 L338A): 103 % WT binding; Mean % WT Binding (human CD33 H339A): 99.3 % WT binding; Mean % WT Binding (human CD33 S342A): 102 % WT binding; Mean % WT Binding (human CD33 N344A): 67.7 % WT binding; Mean % WT Binding (human CD33 L273A): 104 % WT binding |
| Refmab #5 (antibody, V domains shown, The alanine scan used IgG or Fab) VH: QVQLVQSGAEVKKPGASVKVSCKASGYTFTNYDINWVRQAPGQGLEWIGWIYPGDGSTKYNEKFKAKATLTADTSTSTAYMELRSLRSDDTAVYYCASGYEDAMDYWGQGTTVTVSS VL: DIQMTQSPSSLSASVGDRVTINCKASQDINSYLSWFQQKPGKAPKTLIYRANRLVDGVPSRFSGSGSGQDYTLTISSLQPEDFATYYCLQYDEFPLTFGGGTKVEIK | 89 % WT binding | 100 % WT binding | 100 % WT binding | 124 % WT binding | 116 % WT binding | 97.5 % WT binding | 97.1 % WT binding | 91.8 % WT binding | 118 % WT binding | 103 % WT binding | 87.7 % WT binding | 84.6 % WT binding | 101 % WT binding | 83.7 % WT binding | 84.5 % WT binding | 92.8 % WT binding | 77 % WT binding | 103 % WT binding | 88.5 % WT binding | 79.5 % WT binding | Mean % WT Binding (human CD33 P319A): 70 % WT binding; Mean % WT Binding (human CD33 T320A): 121 % WT binding; Mean % WT Binding (human CD33 S324A): 96.6 % WT binding; Mean % WT Binding (human CD33 S326A): 107 % WT binding; Mean % WT Binding (human CD33 A328S): 105 % WT binding; Mean % WT Binding (human CD33 A329S): 124 % WT binding; Mean % WT Binding (human CD33 P330A): 90.3 % WT binding; Mean % WT Binding (human CD33 M334A): 99.4 % WT binding; Mean % WT Binding (human CD33 A272S): 110 % WT binding; Mean % WT Binding (human CD33 E336A): 90.5 % WT binding; Mean % WT Binding (human CD33 E337A): 114 % WT binding; Mean % WT Binding (human CD33 L338A): 105 % WT binding; Mean % WT Binding (human CD33 H339A): 82.7 % WT binding; Mean % WT Binding (human CD33 S342A): 101 % WT binding; Mean % WT Binding (human CD33 N344A): 87.9 % WT binding; Mean % WT Binding (human CD33 L273A): 102 % WT binding |
